Our source for the binding result and blocks receptor dimerization values is US20240417476A1 (ATYR PHARMA, published 2024).

For test [1], the target named is T1, Short NRP2A peptide (biotinylated) (human, biotin-conjugated, site not stated). As to the kind of experiment: BLI, peptide on sensor, 50 nM antibody. On the technique in general: Biolayer interferometry detects binding as a change in optical thickness at a sensor tip.
The target of test [2] is T2, Human NRP2a v2 (926aa) in pBiT2.1-C with C-terminal split NanoLuc tag, expressed in Expi293 cells (human, UniProt O60462 23-931).
T2 construct: cDNA Origene RCC220706, isoform 2; also called pBiT2.1-C-NRP2v2 (isoform 2); NRP2 v2; not shown: vector-encoded spacer and small split NanoLuc fragment (pBiT2.1-C)
In words: CCL21-induced NRP2a/CCR7 receptor dimerization (NanoBiT, Example 7); mark beside the epitope box.

Test [3] concerns the target T3, mNRP2A peptide (biotinylated) (mouse, biotin-conjugated, site not stated).
T3 construct: also called mouse NRP2 isoform a peptide
As to the kind of experiment: BLI, peptide on sensor.

Test [4] concerns the target T4, NRP2b peptide (biotinylated) (human, biotin-conjugated, site not stated).
T4 construct: also called NRP2b isoform specific peptide
T4 peptide: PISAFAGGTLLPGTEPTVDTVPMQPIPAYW
As to the kind of experiment: BLI, peptide on sensor.

Test [5] has as its target T5, NRP2a_scan 1 peptide (biotinylated) (human, also: biotin-conjugated, site not given here).
T5 peptide: VDIPEIHEREGY
In words: peptide ELISA.

Another test deals with T6, NRP2v3.
T6 construct: not the NanoLuc-tagged construct m33; also called human NRP2 v3 expressed on Expi293F cells; NRP2a v3
T6 chain: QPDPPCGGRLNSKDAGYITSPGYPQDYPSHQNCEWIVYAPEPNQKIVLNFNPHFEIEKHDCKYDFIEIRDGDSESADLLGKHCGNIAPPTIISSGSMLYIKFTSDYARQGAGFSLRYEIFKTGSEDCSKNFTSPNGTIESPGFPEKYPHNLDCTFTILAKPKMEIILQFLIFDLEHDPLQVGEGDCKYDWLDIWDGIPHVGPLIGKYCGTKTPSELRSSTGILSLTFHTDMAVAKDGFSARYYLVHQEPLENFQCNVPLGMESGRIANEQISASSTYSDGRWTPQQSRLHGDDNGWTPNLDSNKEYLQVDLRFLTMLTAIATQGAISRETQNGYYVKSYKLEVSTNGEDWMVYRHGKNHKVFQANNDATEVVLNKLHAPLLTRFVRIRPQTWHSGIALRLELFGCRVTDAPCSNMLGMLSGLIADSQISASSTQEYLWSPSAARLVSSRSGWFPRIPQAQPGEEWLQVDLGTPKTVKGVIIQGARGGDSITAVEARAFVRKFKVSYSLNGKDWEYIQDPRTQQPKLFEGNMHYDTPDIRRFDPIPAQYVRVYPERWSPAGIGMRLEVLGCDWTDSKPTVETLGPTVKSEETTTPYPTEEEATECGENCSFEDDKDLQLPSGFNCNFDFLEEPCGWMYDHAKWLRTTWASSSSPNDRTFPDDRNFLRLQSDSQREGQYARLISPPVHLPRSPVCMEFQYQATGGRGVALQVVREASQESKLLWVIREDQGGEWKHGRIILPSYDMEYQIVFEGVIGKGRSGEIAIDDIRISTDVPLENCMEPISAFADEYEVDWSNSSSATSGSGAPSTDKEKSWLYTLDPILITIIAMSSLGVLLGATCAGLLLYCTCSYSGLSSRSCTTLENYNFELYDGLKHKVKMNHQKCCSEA
In words: flow cytometry, Expi293F cells transfected with the target, fluorescent anti-mouse secondary; MFI signal relative to mock-transfected cells. In general terms: In flow cytometry, cells or beads pass a laser one at a time.

In test [6] the target is T7, human NRP2b expressed on Expi293F cells (human).
T7 construct: also called full length NRP2b
T7 chain: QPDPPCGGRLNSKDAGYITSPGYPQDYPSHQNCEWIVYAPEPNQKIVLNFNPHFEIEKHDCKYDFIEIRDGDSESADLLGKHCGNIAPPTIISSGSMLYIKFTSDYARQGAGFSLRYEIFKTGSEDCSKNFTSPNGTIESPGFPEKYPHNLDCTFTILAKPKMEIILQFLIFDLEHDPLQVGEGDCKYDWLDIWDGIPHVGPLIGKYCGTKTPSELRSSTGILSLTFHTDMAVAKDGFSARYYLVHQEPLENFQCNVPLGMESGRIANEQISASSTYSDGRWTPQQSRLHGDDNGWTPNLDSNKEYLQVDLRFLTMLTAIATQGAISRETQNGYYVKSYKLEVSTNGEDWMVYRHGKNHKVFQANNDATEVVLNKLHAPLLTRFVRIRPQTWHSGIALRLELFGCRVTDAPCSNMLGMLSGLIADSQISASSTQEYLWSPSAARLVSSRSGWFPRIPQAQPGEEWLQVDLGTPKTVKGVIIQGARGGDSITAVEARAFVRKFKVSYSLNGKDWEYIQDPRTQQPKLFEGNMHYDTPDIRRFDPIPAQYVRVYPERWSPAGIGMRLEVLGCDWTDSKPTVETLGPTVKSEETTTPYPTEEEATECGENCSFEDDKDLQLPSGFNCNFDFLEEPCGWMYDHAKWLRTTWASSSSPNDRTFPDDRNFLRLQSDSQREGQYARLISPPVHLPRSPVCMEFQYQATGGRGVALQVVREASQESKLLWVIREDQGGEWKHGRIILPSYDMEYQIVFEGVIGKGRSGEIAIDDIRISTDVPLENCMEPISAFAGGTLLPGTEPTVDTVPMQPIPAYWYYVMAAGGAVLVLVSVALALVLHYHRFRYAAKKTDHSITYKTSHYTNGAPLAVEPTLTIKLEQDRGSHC
The description is as above.
Experimental: (§1) Signal to noise was calculated as the staining intensity of transfected cells compared to an un-transfected ‘mock’ population.

Test [7] deals with T8, NRP2a_scan 4 peptide (biotinylated) (human, also: biotin-conjugated, site not given here).
T8 peptide: EGYEDEIDDEYE
In words: BLI, peptide on sensor.

Test [8] deals with T9, NRP2a_scan 3 peptide (biotinylated) (human, also: biotin-conjugated, site not given here).
T9 peptide: HEREGYEDEIDD
In words: BLI, peptide on sensor.

The target in test [9] is T10, NRP2a_scan 5 peptide (biotinylated) (human, also: biotin-conjugated, site not given here).
T10 peptide: EDEIDDEYEVDW
In words: BLI, peptide on sensor.

Test [10] concerns the target T11, NRP2a_scan 7 peptide (biotinylated) (human, also: biotin-conjugated, site not given here).
T11 peptide: EYEVDWSNSSSA
In words: BLI, peptide on sensor.

Test [11] deals with T12, NRP2a_scan 6 peptide (biotinylated) (human, also: biotin-conjugated, site not given here).
T12 peptide: IDDEYEVDWSNS
In words: BLI, peptide on sensor.

Test [12] deals with T13, Mid-mNRP2A peptide (biotinylated) (mouse, biotin-conjugated, site not stated).
T13 peptide: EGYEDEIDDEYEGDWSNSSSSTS
In words: BLI, peptide on sensor.

Test [13] deals with T14, NRP2a_scan 2 peptide (biotinylated) (human, also: biotin-conjugated, site not given here).
T14 peptide: PEIHEREGYEDE
In words: BLI, peptide on sensor.

Test [14] deals with T15, Mid-NRP2A peptide (biotinylated) (human, biotin-conjugated, site not stated).
T15 peptide: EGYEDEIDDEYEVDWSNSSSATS
As to the kind of experiment: BLI, peptide on sensor.

Test [15] deals with mNRP2b peptide (biotinylated) (mouse, biotin-conjugated, site not stated). In words: BLI, peptide on sensor.
Test [16] addresses T16, NRP2A peptide (biotinylated) (human, biotin-conjugated, site not stated).
T16 construct: also called NPR2A; NRP2a specific peptide
As to the kind of experiment: BLI, isoform peptide on sensor, 50 nM antibody.

Test [17] deals with T3, mNRP2A peptide (biotinylated). As to the kind of experiment: BLI, peptide on sensor, 50 nM antibody.
Test [18] deals with T10, NRP2a_scan 5 peptide (biotinylated). In words: BLI, peptide on sensor, 50 nM antibody.
Test [19] addresses T12, NRP2a_scan 6 peptide (biotinylated). In words: BLI, peptide on sensor, 50 nM antibody.
The target in test [20] is T13, Mid-mNRP2A peptide (biotinylated). In words: BLI, peptide on sensor, 50 nM antibody.
For test [21], the target named is T15, Mid-NRP2A peptide (biotinylated). As to the kind of experiment: BLI, peptide on sensor, 50 nM antibody.
Test [22] has as its target T1, Short NRP2A peptide (biotinylated). As to the kind of experiment: BLI, peptide on sensor.
Test [23] has as its target T5, NRP2a_scan 1 peptide (biotinylated). In words: BLI, peptide on sensor.
In test [24] the target is T4, NRP2b peptide (biotinylated). As to the kind of experiment: BLI, peptide on sensor.

Read-outs that look alike come from different tables or passages of the source. Ends that are not written are not given here.

Sequence of mNRP2b peptide (biotinylated) (mouse, biotin-conjugated, site not stated) (peptide, as listed by the source): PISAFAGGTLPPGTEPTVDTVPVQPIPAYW
Experimental for NRP2v3: as §1

B1: aNRP2-400v2 (antibody, V domains shown)
VH: EVQLQESGAELARPGASVKLSCKASGYTFRSYGISWVKQRTGQGLEWIGEIYPRSGNTYYDENFKGRATLTADKSSSTAFMELRSLTSEDSAVYFCARSSITAVVAIPYYYAMDYWGQGTSVTVSS
VL: DIQMTQTTSSLSASLGDRVTISCSASQGISNYLNWYQQKPDGSVKLLIYYTSSLHSGVPSRFSGSGSGTDYSLTISNLEPEDIATYYCQQYSKLPHTFGGGTKLELK
notes: Mouse monoclonal
For B1, the binding result in test [1] is “binds”; in test [3], “no binding (tested: 50 nM)”; in test [4], “no binding (tested: 50 nM)”; in test [5], “binds”; with NRP2v3, “no binding”; in test [6], “no binding”. Moreover, the binding result in test [7], in test [8], in [9], in [10], in test [11] and in test [12] was “no binding (tested: 50 nM)” in each case. Also, the binding result is listed as “no binding (tested: 50 nM)” in test [13], “no binding (tested: 50 nM)” in [14], “no binding (tested: 50 nM)” in [15] and “binds” in test [16]. Further, the blocks receptor dimerization in test [2] was > 50%.

B2: aNRP2-401v2 (antibody, V domains shown)
VH: EVQLQESGGGLVKPGGSLKLSCAASGFTFSDYGMHWVRQAPEKGLEWVATISRDINTVYYADTVKGRFTISRDNAKNTLFLQVTSLRSEDTAMYYCTRGGYTDYWGQGTTLTVSS
VL: DIVMTQTPLSLPVSLGDQASISCRSSQSLVHSNGNTYLYWYLQRPGQSPKLLIYKVSNRFSGVPDRFSGSGSGTDFTLKISRVEAEDLGVYFCSQSTHVLTFGGGTKLEIK
notes: Mouse monoclonal
Take B2: the binding result in test [17] is “binds”; in test [18], “binds”; in test [19], “binds”; in test [20], “binds”; in [21] it was “binds”; in test [7], “no binding (tested: 50 nM)”. Moreover, the binding result in [22], in test [23], in [8], in test [10], in test [13] and in [24] was “no binding (tested: 50 nM)” in each case. Further, the binding result was “no binding (tested: 50 nM)” in test [15] and “binds” in test [16].
